Measured values published in publication PMC5727384, “A pH-gated conformational switch regulates the phosphatase activity of bifunctional HisKA-family histidine kinases” (Nature Communications, 2017).
Numbering of substitutions follows the chain as printed. Names and notes keep the numbering of the source.

T1: HK853^cp-BeF3 ^−-RR468 complex (nucleotide site of HK853^cp) (Thermotoga maritima, UniProt Q9WZV7)
T1 construct: gene TM_0853; HK853 cytoplasmic portion (DHp and CA domains, residues 232-489), with RR468; heterotetramer of two HK853cp and two RR468; expressed in E. coli; with Response regulator
T1 sequence (Q9WZV7 232-489): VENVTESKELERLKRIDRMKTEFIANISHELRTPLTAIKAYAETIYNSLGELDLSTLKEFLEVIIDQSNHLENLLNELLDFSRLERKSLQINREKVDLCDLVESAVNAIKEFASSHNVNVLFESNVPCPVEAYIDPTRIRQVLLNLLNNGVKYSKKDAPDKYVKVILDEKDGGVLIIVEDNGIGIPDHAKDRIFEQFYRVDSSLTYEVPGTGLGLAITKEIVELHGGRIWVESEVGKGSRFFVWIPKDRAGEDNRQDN
T1 sequence (Q9WYT9 1-122 partner): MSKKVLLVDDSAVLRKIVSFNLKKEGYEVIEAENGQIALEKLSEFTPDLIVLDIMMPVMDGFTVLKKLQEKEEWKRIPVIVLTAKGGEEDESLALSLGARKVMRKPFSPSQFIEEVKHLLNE

B1: Cytoplasmic portion of HK853 (HK853^cp), wild type, residues 232–489 (domain or fragment, Thermotoga maritima, UniProt Q9WZV7 232-489, looked up)
chain: T1 sequence (Q9WZV7 232-489)
notes: Histidine kinase HK853, Thermotoga maritima, cytoplasmic portion (DHp and CA domains), residues 232–489; Crystallised with AMPPNP, which was captured as ADP; also called wild-type HK853^cp; source: E. coli BL21(DE3) Gold, purified (ammonium sulfate precipitation, anion-exchange, size-exclusion)
B2: BeF3−-RR468 (BeF3−-conjugated form of the response regulator RR468 from Thermotoga maritima) (natural protein)
chain: T1 sequence (Q9WYT9 1-122 partner)
modifications: BeF3− on D53 (beryllium atom forming a covalent bond with the phosphate-accepting residue D53; phosphoryl analog)
notes: Response regulator RR468, cognate response regulator of HK853, Thermotoga maritima; Generated by adding 5 mM BeCl2 and 50 mM NaF to RR468 (NMR) or 5 mM BeCl2 and 30 mM NaF (crystallisation); Mg2+ in the active site; source: E. coli BL21(DE3) Gold, purified (incubation at 60 °C, anion-exchange, size-exclusion); BeF3− added as BeCl2 and NaF
B3: T264A mutant of the cytoplasmic portion of HK853 (T264A HK853^cp) (domain or fragment, Thermotoga maritima, UniProt Q9WZV7 232-489, looked up)
chain: T1 sequence (Q9WZV7 232-489) with T33A
notes: Histidine kinase HK853, Thermotoga maritima, cytoplasmic portion (residues 232–489 as stated for HK853^cp), with T264A; also called HK853^cp T264A mutant
B4: DHp domain of HK853 (HK853^DHp), wild type, residues 250–315 (domain or fragment, Thermotoga maritima, UniProt Q9WZV7 250-315, looked up)
chain: MKTEFIANISHELRTPLTAIKAYAETIYNSLGELDLSTLKEFLEVIIDQSNHLENLLNELLDFSRL
notes: Histidine kinase HK853, Thermotoga maritima, dimerization and histidine-containing phosphotransfer (DHp) domain, residues 250–315; also called wild-type HK853^DHp; not shown: His6, N-terminal, cleaved; MBP, N-terminal, cleaved
B5: T264A mutant of the DHp domain of HK853 (T264A HK853^DHp), residues 250–315 (domain or fragment, Thermotoga maritima, UniProt Q9WZV7 250-315, looked up)
chain: B4 chain with T15A
notes: Histidine kinase HK853, Thermotoga maritima, DHp domain, residues 250–315, with T264A; also called T264A HK853 mutant; not shown: His6, N-terminal, cleaved; MBP, N-terminal, cleaved
B6: H260A mutant of the DHp domain of HK853 (H260A HK853^DHp), residues 250–315 (domain or fragment, Thermotoga maritima, UniProt Q9WZV7 250-315, looked up)
chain: B4 chain with H11A
notes: Histidine kinase HK853, Thermotoga maritima, DHp domain, residues 250–315, with H260A; not shown: His6, N-terminal, cleaved; MBP, N-terminal, cleaved

Assays:
[1] = molecular target: T1, HK853^cp-BeF3 ^−-RR468 complex (nucleotide site of HK853^cp); experiment: X-ray crystal structure, […] A; format: binding; conditions: pH 5.0; Mg2+; crystallised with 4 mM AMPPNP, hydrolysed to ADP; ATP site of HK853 CA domain
[2] = molecular target: T2, HK853^DHp-BeF3 ^−-RR468 complex (Thermotoga maritima, UniProt Q9WYT9); conditions: pH 7.0; Mg2+; 298 K; covalent to D53 of RR468; 10-fold excess of HK853 DHp
T2 construct: gene TM_0468

RR468 = molecular target: T3, RR468 (Thermotoga maritima, UniProt Q9WYT9); conditions: pH 7.0; Mg2+; 298 K; covalent Be bond to D53; formed from 5 mM BeCl2 and 50 mM NaF
T3 construct: gene TM_0468

[3] = molecular target: T4, HK853^cp-BeF3 ^−-RR468 complex (active site of RR468) (Thermotoga maritima, UniProt Q9WYT9); conditions: pH 5.0; Mg2+; covalent to D53 of RR468
T4 construct: gene TM_0468

[4] = molecular target: the molecule itself; experiment: crystal structure; HK853^cp (wild type or T264A) with RR468, BeF3− and AMPPNP (captured as ADP), crystallised at pH 5.0 (citric acid, ammonium sulfate)
[5] = molecular target: B1; experiment: as above; conditions: both partners purified
[6] = molecular target: B3; experiment: as above; conditions: both partners purified
[7] = molecular target: B2; experiment: NMR titration; 19F NMR of BeF3−-RR468, HK853^DHp or mutants added at a concentration 10-fold higher than BeF3−-RR468; pH 7.0; 20 mM HEPES, 50 mM KCl, 10 mM MgCl2; 298 K; conditions: both partners purified

Molecule: Nc1ncnc2c1ncn2[C@@H]1O[C@H](COP(=O)(O)OP(=O)(O)O)[C@@H](O)[C@H]1O [ADP]
X-ray crystal structure, 2.68 A [1]: The AMPPNP is captured in the hydrolyzed form of ADP

Molecule: [F][Be-]([F])[F] [BeF3 ^−]
19F NMR [2]: indicating the formation of the HK853^DHp-BeF3 ^−-RR468 complex
19F NMR (RR468): we were able to detect three broad fluorine signals from the protein-bound BeF3 ^−
X-ray crystal structure, 2.68 A [3]: reveals a heterotetrameric complex consisting of two HK853^cp and two BeF3 ^−-RR468

Molecule: B1
binding result [4]: binds

Molecule: B2
binding result [5]: binds
binding result [6]: binds

Molecule: B3
binding result [4]: binds

Molecule: B4
binding result [7]: binds

Molecule: B5
binding result [7]: binds

Molecule: B6
binding result [7]: binds
